Target: human TNFSF9 (R&D Systems; #2295-4L-025/CF) (human) (UniProt P41273)
Assay: MSD ELISA: TNFSF9 + 1 ug/mL antibody, binding to coated TNFRSF9

human TNFSF9 (R&D Systems; #2295-4L-025/CF) (human), sequence (P41273 71-254 limits assumed): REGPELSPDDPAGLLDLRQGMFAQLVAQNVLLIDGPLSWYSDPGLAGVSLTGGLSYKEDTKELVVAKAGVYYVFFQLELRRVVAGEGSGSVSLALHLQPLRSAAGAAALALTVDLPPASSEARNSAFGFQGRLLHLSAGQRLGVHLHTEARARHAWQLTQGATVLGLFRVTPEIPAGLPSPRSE

| % inhibition of ligand receptor interaction | Substance |
| --- | --- |
| 0% | huIgG1 (antibody) |
| 1% | mouse IgG1 isotype control antibody |
| -4% | msIgG2a (antibody) |
| -5% | msIgG2b (antibody) |
